Assay [1] has as its target T1, Human VEGF165R/NP-1 (neuropilin-1) (human, UniProt O14786 22-923). Briefly: cell-based or functional assay.
Assay [2] addresses T2, Human NP-2 (neuropilin-2) (human, UniProt O60462 21-931).
T2 construct: The open reading frame has 931 amino acids
T2 sequence: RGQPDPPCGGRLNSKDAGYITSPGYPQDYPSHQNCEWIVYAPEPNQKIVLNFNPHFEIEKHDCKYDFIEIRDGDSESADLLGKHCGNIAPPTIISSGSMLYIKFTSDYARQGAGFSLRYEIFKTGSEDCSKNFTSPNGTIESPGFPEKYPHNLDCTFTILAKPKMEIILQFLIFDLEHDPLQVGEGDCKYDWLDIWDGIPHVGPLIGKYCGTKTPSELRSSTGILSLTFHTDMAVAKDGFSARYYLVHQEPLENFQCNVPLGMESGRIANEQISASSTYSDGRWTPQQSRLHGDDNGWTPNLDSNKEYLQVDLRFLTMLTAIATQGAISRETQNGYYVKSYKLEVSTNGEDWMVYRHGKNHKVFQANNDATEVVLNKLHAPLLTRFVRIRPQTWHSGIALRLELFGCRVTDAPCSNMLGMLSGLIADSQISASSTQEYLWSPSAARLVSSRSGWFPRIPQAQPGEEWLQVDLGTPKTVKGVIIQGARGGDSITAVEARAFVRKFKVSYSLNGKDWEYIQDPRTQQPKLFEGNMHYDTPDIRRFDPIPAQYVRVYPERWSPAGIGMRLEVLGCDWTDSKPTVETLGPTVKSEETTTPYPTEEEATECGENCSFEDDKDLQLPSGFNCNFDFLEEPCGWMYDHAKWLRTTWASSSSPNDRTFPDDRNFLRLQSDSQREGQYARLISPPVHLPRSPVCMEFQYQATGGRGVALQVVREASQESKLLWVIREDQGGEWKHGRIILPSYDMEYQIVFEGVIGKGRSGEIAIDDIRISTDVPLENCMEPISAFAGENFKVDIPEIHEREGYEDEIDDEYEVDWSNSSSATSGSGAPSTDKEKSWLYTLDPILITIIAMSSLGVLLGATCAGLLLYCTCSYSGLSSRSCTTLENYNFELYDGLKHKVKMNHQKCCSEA
Briefly: expression cloning: COS-7 cells transfected with single cDNA clones, screened for 125I-VEGF165 binding; seven positive clones, of which this one is NP-2.
Experimental: Seven positive DNA pools were identified and DNA from one of the positive pools was used to transform E. coli. The E. coli were sub-divided into 50 separate pools and plated onto 50 LB ampicillin dishes, with each pool representing approximately 100 clones. DNA made from these pools was transfected into COS-7 cells which were screened for ¹²⁵I-VEGF₁₆₅ binding as described above. […] Each pool was plated onto separate LB ampicillin dishes and DNA was prepared from 96 individual colonies and screened in a 96-well two dimensional grid for ¹²⁵I-VEGF₁₆₅ binding to transfected COS-7 cells as described above. […] The seven positive plasmid clones where amplified and their DNA was analyzed by restriction enzyme digestion. […] One clone from each group was submitted for automated DNA sequencing.
E. coli transformed with the plasmid library were divided into pools. The DNA prepared from each pool were transfected into COS-7 cells in separate wells and individual cells were screened for the ability to bind ¹²⁵I-VEGF₁₆₅ as detected by autoradiography of monolayers overlayed with photographic emulsion (FIG. 2A).

The target of assay [3] is T3, Rat neuropilin-1 on AT3.1 Dunning rat prostate carcinoma cells (rat, UniProt Q9QWJ9 22-922).
T3 construct: whole, on cells; also called VEGF165R/NP-1 (AT3.1 cells)
In words: 125I-VEGF165 cross-linking to AT3.1 rat prostate carcinoma cells.

The target of assay [4] is T1, Human VEGF165R/NP-1 (neuropilin-1). In words: Scatchard analysis (LIGAND program) of 125I-VEGF165 binding to PAE/NP-1 cells.
Experimental: FIGS. 7A and 7B show a Scatchard Analysis of VEGF₁₆₅ binding to VEGF₁₆₅R/NP-1. […] Increasing amounts of ¹²⁵I-VEGF₁₆₅ (0.1-50 ng ml) were added to subconfluent cultures of PAE cells transfected with human VEGF₁₆₅R/NP-1 cDNA (PAE/NP-1 cells) in 48 well dishes. Non-specific binding was determined by competition with a 200-fold excess of unlabeled VEGF₁₆₅. After binding, the cells were washed, lysed and the cell-associated radioactivity was determined using a counter.
The specific activity ranged from 40,000-100,000 cpm/ng protein. […] VEGF binding was quantitated by measuring the cell-associated radioactivity in a y-counter (Beckman, Gamma 5500). The counts represent the average of three wells. All experiments were repeated at least three times and similar results where obtained.
Assay [5] shares this target. Briefly: 125I-VEGF121 binding and chemical cross-linking to PAE/NP-1 cells, SDS-PAGE and autoradiography, 1 µg/ml heparin. The text has this:
The cells were lysed and proteins were resolved by 6% SDS-PAGE.

The target of another assay is T4, KDR (UniProt P35968 20-1356, limits assumed).
T4 construct: whole, on cells; also called KDR/Flk-1
T4 sequence (P35968 20-1356 limits assumed): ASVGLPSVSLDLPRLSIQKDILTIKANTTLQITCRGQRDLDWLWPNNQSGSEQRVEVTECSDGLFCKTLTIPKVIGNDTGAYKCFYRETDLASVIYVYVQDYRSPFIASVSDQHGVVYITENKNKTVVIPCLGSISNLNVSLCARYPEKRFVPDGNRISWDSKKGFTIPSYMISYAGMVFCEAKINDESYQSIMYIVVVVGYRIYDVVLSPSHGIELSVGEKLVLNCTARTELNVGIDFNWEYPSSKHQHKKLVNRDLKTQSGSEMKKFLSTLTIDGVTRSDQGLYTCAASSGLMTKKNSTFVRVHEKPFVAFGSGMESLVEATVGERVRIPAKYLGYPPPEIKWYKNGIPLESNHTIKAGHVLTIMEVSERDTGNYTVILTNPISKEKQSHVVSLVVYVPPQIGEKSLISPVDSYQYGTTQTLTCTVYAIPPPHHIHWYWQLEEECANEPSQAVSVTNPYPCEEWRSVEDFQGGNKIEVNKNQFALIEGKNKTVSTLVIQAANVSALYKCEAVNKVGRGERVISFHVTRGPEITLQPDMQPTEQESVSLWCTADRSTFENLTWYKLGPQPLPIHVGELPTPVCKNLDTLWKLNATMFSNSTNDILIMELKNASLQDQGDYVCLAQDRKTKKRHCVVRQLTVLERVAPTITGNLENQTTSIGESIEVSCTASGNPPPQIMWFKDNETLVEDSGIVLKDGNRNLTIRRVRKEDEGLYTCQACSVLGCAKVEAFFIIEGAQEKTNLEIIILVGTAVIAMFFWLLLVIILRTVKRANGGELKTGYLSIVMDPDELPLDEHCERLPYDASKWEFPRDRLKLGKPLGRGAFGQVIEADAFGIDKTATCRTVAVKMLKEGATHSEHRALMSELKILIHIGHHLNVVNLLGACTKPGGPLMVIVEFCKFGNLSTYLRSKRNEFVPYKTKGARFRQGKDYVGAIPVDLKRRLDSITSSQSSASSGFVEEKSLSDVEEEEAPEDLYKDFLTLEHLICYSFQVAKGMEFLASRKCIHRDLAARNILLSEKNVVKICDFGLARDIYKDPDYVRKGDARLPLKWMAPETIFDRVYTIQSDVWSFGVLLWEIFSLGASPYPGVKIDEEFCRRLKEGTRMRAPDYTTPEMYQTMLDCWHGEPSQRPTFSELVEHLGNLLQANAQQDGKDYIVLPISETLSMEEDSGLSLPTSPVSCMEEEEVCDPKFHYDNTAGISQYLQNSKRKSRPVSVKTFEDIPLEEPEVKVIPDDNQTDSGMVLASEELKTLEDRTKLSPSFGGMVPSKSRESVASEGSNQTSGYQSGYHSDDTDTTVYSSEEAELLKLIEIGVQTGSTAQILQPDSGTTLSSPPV
Briefly: 125I-collapsin-1 binding to PAE/KDR cells.

B1: Human recombinant VEGF165 (ligand, UniProt P15692-4 27-191, looked up)
chain: APMAEGGGQNHHEVVKFMDVYQRSYCHPIETLVDIFQEYPDEIEYIFKPSCVPLMRCGGCCNDEGLECVPTEESNITMQIMRIKPHQGQHIGEMSFLQHNKCECRPKKDRARQENPCGPCSERRKHLFVQDPQTCKCSCKNTDSRCKARQLELNERTCRCDKPRR
modifications: radio-iodinated (125I) using IODO-BEADS in the binding and cross-linking experiments
notes: mature
As a reminder, the Kd is the equilibrium constant for the complex coming apart. Read a low Kd as higher affinity. Turning to B1, in assay [1], the “stimulation of 231 breast carcinoma cell motility, Boyden chamber, VEGF165 50 ng/ml” value was found to be 2 fold. Also, the binding result in assay [2] and in assay [3] was “binds” each time. This molecule came in with a Kd in assay [4] of around 0.32 nM.

B2: Human recombinant VEGF121 (ligand, UniProt P15692-9 27-147, looked up)
chain: APMAEGGGQNHHEVVKFMDVYQRSYCHPIETLVDIFQEYPDEIEYIFKPSCVPLMRCGGCCNDEGLECVPTEESNITMQIMRIKPHQGQHIGEMSFLQHNKCECRPKKDRARQEKCDKPRR
modifications: radio-iodinated (125I) using IODO-BEADS in the cross-linking experiments
notes: mature
In the case of B2, in assay [5], the binding result was “no binding (tested: 10 ng/ml)”.

B3: Recombinant chick collapsin-1 (semaphorin III) (ligand, UniProt Q90607 23-772, looked up)
chain: QHVKNNVPRLKLSYKEMLESNNIVNFNGLANSSSYHTFLLDEERSRLYVGAKDHIFSFNLVNIKEYQKIVWPVSHSRRDECKWAGKDILRECANFIKVLKTYNQTHLYACGTGAFHPMCTYIEVGSHPEDNIFRMEDSHFENGRGKSPYDPKLLTASLLVDGELYSGTAADFMGRDFAIFRTLGHHHPIRTEQHDSRWLNDPRFISAHLIPESDNPEDDKIYFFFRENAIDGEHTGKATHARIGQICKNDFGGHRSLVNKWTTFLKARLICSVPGPNGIDTHFDELQDVFLMNSKDPKNPIVYGVFTTSSNIFKGSAVCMYSMTDVRRVFLGPYAHRDGPNYQWVPYQGRVPYPRPGTCPSKTFGGFDSTKDLPDEVITFARSHPAMYNPVFPINSRPIMIKTDVDYQFTQIVVDRVDAEDGQYDVMFIGTDIGTVLKVVSIPKETWHELEEVLLEEMTVFREPTVISAMKISTKQQQLYIGSATGVSQLPLHRCDVYGKACAECCLARDPYCAWDGSSCSRYFPTAKRRTRRQDIRNGDPLTHCSDLQHHDNPSGQTLEEKIIYGVENSSTFLECSPKSQRAIVYWQFQKQNDDHKVEIKVDDRMIRTEQGLLLRSLQRRDSGIYFCHAVEHGFIQTLLKVTLEVIDTDHLEELLHKEEDADASKTKDATNSMTPSQKIWYRDFMQLINHPNLNTMDEFCEQVWKRDRKQRRQRPANAQVNTNKWKHLQENKKGRNRRTHEFERAPRSV
modifications: 125I-labelled in the binding studies
Take B3: the binding result in the assay with KDR is reported as “no binding”.
